# Assay results from paper PMC12830165 (The Journal of Biological Chemistry, 2025).
# B1: 40 bp fluorescein dsDNA (dsDNA)
# DNA 1: TTTTGAAAAGCAAGCATAAAAGATCTAAACATAAAATCTG
# DNA 2: CAGATTTTATGTTTAGATCTTTTATGCTTGCTTTTCAAAA
# Assays:
# [1] = molecular target: T1, human ORC1-5 (HsORC1-5, with ORC1ΔN) (Homo sapiens, UniProt O43929+Q13415, O43929:N78S/Q13415:R720Q); assay: NADH-coupled steady-state ATPase assay; type: biochemical; settings: ATP 0.13 uM to 0.5 mM, 1 uM ORC, 10 mM Mg acetate, 300 mM K glutamate, pH 7.6, 37 C; ORC1-ORC4 ATPase site
# T1 construct: ORC1 N-terminally truncated (ORC1ΔN399, probably starts at residue 400), ORC4 with natural variant N78S; 6xHis-TEV (ORC1) and MBP-TEV (ORC4) tags cleaved; baculovirus/High Five cells; ORC6 not included; with Origin recognition complex subunit 2; Origin recognition complex subunit 3; Origin recognition complex subunit 5
# T1 sequence (Q13415 400-861 R720Q): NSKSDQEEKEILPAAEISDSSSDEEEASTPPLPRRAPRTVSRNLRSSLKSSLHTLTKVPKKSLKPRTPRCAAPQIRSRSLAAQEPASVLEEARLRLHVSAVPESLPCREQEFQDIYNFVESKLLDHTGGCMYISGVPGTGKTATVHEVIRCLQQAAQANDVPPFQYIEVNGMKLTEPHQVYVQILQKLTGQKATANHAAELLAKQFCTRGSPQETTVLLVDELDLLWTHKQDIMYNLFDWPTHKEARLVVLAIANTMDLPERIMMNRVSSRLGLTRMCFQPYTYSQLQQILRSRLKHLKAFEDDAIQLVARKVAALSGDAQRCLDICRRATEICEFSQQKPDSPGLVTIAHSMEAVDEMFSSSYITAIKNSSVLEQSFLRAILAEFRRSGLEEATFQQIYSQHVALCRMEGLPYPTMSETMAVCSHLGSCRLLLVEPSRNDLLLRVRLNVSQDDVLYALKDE
# T1 sequence (O43929 whole entry N78S, the tested form may be a part): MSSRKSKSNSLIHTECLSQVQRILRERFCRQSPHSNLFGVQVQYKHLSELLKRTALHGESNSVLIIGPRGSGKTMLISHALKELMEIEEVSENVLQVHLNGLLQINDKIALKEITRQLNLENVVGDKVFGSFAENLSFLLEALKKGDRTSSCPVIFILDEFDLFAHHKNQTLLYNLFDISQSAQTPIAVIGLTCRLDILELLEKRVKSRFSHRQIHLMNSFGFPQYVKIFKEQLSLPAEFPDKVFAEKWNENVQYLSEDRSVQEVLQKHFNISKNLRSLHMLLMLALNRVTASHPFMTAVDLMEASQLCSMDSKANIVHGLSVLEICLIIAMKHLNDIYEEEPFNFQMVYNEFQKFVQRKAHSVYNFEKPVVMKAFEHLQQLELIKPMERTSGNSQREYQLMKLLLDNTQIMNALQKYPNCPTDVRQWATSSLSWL
# T1 sequence (Q13416 whole entry partner, the tested form may be a part): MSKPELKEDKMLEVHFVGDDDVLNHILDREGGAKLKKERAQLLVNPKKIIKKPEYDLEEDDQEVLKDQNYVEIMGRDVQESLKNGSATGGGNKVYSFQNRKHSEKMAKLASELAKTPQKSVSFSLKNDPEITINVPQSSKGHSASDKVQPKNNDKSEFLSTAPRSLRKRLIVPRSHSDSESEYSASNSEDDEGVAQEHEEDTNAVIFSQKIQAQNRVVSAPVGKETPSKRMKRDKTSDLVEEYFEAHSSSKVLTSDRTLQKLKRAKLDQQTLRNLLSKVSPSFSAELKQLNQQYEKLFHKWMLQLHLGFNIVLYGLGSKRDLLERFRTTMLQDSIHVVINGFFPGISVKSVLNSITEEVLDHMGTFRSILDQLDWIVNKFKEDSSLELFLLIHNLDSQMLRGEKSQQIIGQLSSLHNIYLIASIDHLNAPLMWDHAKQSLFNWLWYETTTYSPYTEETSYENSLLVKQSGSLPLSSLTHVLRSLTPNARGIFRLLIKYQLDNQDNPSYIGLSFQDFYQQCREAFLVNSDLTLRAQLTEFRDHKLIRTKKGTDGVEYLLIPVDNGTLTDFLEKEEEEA
# T1 sequence (Q9UBD5 whole entry partner, the tested form may be a part): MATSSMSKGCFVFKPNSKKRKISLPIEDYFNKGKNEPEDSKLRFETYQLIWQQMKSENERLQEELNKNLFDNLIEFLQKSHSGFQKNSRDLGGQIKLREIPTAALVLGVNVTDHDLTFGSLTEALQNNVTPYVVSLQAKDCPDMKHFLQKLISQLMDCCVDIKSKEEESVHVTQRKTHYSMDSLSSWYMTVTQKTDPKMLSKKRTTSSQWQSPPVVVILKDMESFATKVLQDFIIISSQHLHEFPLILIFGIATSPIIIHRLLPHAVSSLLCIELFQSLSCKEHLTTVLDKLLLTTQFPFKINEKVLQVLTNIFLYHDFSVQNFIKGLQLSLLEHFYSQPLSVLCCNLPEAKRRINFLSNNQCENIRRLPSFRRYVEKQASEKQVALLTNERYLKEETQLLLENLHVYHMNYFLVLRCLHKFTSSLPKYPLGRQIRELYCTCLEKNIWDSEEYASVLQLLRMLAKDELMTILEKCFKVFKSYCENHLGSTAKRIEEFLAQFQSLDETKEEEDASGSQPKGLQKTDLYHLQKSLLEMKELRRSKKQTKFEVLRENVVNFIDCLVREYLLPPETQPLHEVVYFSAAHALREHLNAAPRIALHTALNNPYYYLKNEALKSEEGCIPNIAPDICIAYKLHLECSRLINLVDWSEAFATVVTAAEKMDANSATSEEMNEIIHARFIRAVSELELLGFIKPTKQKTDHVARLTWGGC
# T1 sequence (O43913 whole entry partner, the tested form may be a part): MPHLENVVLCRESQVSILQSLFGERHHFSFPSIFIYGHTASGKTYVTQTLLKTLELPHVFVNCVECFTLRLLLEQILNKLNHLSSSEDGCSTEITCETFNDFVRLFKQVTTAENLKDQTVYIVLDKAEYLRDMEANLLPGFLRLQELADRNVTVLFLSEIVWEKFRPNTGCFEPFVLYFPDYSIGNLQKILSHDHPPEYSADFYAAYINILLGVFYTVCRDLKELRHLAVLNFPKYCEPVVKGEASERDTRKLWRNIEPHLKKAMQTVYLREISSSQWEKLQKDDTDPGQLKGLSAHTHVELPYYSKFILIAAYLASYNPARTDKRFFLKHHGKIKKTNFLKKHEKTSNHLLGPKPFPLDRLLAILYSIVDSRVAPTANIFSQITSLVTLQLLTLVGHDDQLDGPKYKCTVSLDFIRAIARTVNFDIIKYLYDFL
# [2] = molecular target: ORC1-5 ORC1 R666W (human, UniProt Q13415;Q13416;Q9UBD5;O43929;O43913 400-861;1-577;1-711;1-436;1-435, R666W;N78S); assay: fluorescence anisotropy; 1 mM ATP, 10 mM Mg acetate; 25 mM HEPES-KOH pH 7.6, 300 mM K glutamate, 10% glycerol, 1 mM DTT, 10 mM Mg acetate, 0.01% NP-40, 0 or 1 mM ATP, 1 nM DNA, 30 min at 22 °C; Hill fit (Kd,app); settings: protein: recombinant; tags: 6xHis-TEV (ORC1) and MBP-TEV (ORC4), cleaved by TEV; copies: 1;1;1;1;1; label: 5' fluorescein-T on strand 1; blunt (40 bp; possible 1 nt 5' FluorT overhang)
# [3] = molecular target: ORC1-5 ORC4 Y174C (human, UniProt Q13415;Q13416;Q9UBD5;O43929;O43913 400-861;1-577;1-711;1-436;1-435, Y174C;ORC4:N78S); assay: as above; settings: protein: recombinant; tags: 6xHis-TEV (ORC1) and MBP-TEV (ORC4), cleaved by TEV; copies: 1;1;1;1;1; label: 5' fluorescein-T on strand 1; blunt (40 bp; possible 1 nt 5' FluorT overhang)
# [4] = molecular target: ORC1-5 (WT, ORC1ΔN) (human, UniProt Q13415;Q13416;Q9UBD5;O43929;O43913 400-861;1-577;1-711;1-436;1-435, N78S); assay: as above; settings: protein: recombinant; tags: 6xHis-TEV (ORC1) and MBP-TEV (ORC4), cleaved by TEV; copies: 1;1;1;1;1; label: 5' fluorescein-T on strand 1; blunt (40 bp; possible 1 nt 5' FluorT overhang)
# [5] = molecular target: ORC1-5 ORC1 R720Q (human, UniProt Q13415;Q13416;Q9UBD5;O43929;O43913 400-861;1-577;1-711;1-436;1-435, R720Q;N78S); assay: as above; settings: protein: recombinant; tags: 6xHis-TEV (ORC1) and MBP-TEV (ORC4), cleaved by TEV; copies: 1;1;1;1;1; label: 5' fluorescein-T on strand 1; blunt (40 bp; possible 1 nt 5' FluorT overhang)
Molecule,NADH-coupled steady-state ATPase assay [1],Kd [2],binding result [3],Kd [4],binding result [5]
Nc1ncnc2c1ncn2[C@@H]1O[C@H](COP(=O)(O)OP(=O)(O)OP(=O)(O)O)[C@@H](O)[C@H]1O [ATP],with the largest ATP hydrolysis defect observed with ORC1R720Q,,,,
B1,,49.9 nM,no binding,37.6 nM,no binding
